Data taken from patent publication US20230322953A1 (HARBOUR BIOMED SHANGHAI, published 2023).
Like-named read-outs stand apart in the source and are kept apart here.

Legend:
[1] = target: T1, human BCMA on NCI-H929 cells (ATCC, CRL-9068) (human, UniProt Q02223 1-184); test: cell-based or functional assay
T1 sequence (looked up): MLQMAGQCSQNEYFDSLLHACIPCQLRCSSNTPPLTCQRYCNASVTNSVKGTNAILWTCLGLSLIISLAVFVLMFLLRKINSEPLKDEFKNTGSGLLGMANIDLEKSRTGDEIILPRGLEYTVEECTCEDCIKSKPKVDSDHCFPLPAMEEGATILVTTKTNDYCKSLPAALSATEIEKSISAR

[2] = target: T2, biotinylated human BCMA-Fc, Avitag recombinant protein (ACRO Biosystems, #BC7-H82F0) (human, UniProt Q02223 1-54, biotinylated (Avitag)); test: BLI (Octet Red96e), biotinylated BCMA-Fc on SA sensor, 1:1 global fitting;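 note: Anti-BCMA antibodies analysed as binding partners of the captured BCMA antigen, with reference signals removed by double referencing before kinetic fitting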
T2 construct: extracellular domain; Bought protein; also called huBCMA.Fc; recombinant human BCMA-ECD-Fc
T2 sequence (looked up): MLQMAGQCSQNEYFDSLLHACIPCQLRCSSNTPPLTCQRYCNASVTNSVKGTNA

[3] = target: T3, cynomolgus monkey CD3 (TCR/CD3 complex) on cynomolgus monkey T cells (cynomolgus monkey); test: flow cytometry (FACS) on cynomolgus monkey T cells
T3 construct: whole, on cells

[4] = target: T1, human BCMA on NCI-H929 cells (ATCC, …); test: cell-based or functional assay; remark: listed apart in the source
[5] = target: T4, cynomolgus monkey BCMA (ACRO Biosystems, #BCA-C82F4) (cynomolgus monkey, UniProt A0A2K5UD97 1-53); test: BLI (Octet Red96e), cyBCMA.Fc on SA sensor, 1:1 global fitting
T4 construct: Bought protein; also called cyBCMA.Fc

[6] = target: T4, cynomolgus monkey BCMA (ACRO …); test: BLI; KD for cynomolgus monkey BCMA divided by KD for human BCMA
[7] = target: T5, human CD3 (TCR/CD3 complex) on human T cells (human, UniProt P07766 23-207); test: flow cytometry (FACS) on human T cells, Experiment 3
T5 construct: whole, on cells

[8] = target: T1, human BCMA on NCI-H929 cells (ATCC, …); test: cell-based or functional assay; remark: listed apart in the source
[9] = target: T1, human BCMA on NCI-H929 cells (ATCC, …); test: cell-based or functional assay; remark: listed apart in the source

T4 sequence (A0A2K5UD97 entry or part of it): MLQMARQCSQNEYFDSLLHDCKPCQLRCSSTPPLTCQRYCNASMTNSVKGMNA
T3 sequence (Q95LI5 22-198, one chain of several): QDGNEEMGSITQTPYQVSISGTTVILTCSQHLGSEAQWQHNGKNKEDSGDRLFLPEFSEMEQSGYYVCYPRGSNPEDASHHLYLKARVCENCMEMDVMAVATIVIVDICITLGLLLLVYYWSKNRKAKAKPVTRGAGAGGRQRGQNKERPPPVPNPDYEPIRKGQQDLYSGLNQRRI
T5 sequence (P07766 23-207, one chain of several): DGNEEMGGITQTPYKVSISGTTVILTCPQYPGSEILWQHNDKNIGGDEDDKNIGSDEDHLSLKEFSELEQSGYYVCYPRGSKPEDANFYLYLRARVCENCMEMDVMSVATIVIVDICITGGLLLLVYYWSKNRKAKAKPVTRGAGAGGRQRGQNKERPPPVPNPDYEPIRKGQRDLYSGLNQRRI

B1: PR002309 (bispecific antibody, human IgG1, lambda, L234A L235A)
light: QAVVTQEPSLTVSPGGTVTLTCRSSTGAVTTSNYANWVQQKPGQAPRGLIGGTNKRAPWTPARFSGSLLGDKAALTLLGAQPEDEAEYFCALWYSNLWVFGGGTKLTVLGQPKAAPSVTLFPPSSEELQANKATLVCLISDFYPGAVTVAWKADSSPVKAGVETTTPSKQSNNKYAASSYLSLTPEQWKSHRSYSCQVTHEGSTVEKTVAPTECS
heavy: EVQLLESGGGLVQPGGSLRLSCAASGFTFSTYAMNWVRQAPGKGLEWVSRIRSKYNNYATYYADSVKDRFTISRDDSKSTLYLQMNSLRAEDTAVYYCVRHGNFGNSYVSWFAYWGQGTLVTVSSASTKGPSVFPLAPSSKSTSGGTAALGCLVKDYFPEPVTVSWNSGALTSGVHTFPAVLQSSGLYSLSSVVTVPSSSLGTQTYICNVNHKPSNTKVDKKVEPKSCDKTHTCPPCPAPEAAGGPSVFLFPPKPKDTLMISRTPEVTCVVVDVSHEDPEVKFNWYVDGVEVHNAKTKPREEQYNSTYRVVSVLTVLHQDWLNGKEYKCKVSNKALGAPIEKTISKAKGQPREPQVYTLPPCREEMTKNQVSLWCLVKGFYPSDIAVEWESNGQPENNYKTTPPVLDSDGSFFLYSKLTVDKSRWQQGNVFSCSVMHEALHNHYTQKSLSLSPGK
chain: EVQLVETGGGLIQPGGSLRLSCAASGFTVSDNYMTWVRQAPGKGLEWVSVIFSGGNTYYADSVKGRFTISRDNAKNTLYLQMNSLRAEDTALYYCARRNYDDTRGTDVFDIWGQGTMVTVSSRTGGGGSGGGGSGGGGSKLEVQLVETGGGLIQPGGSLRLSCAASGFTVSDNYMTWVRQAPGKGLEWVSVIFSGGNTYYADSVKGRFTISRDNAKNTLYLQMNSLRAEDTALYYCARRNYDDTRGTDVFDIWGQGTMVTVSSASEPKSSDKTHTCPPCPAPEAAGGPSVFLFPPKPKDTLMISRTPEVTCVVVDVSHEDPEVKFNWYVDGVEVHNAKTKPREEQYNSTYRVVSVLTVLHQDWLNGKEYKCKVSNKALGAPIEKTISKAKGQPREPQVCTLPPSREEMTKNQVSLSCAVKGFYPSDIAVEWESNGQPENNYKTTPPVLDSDGSFFLVSKLTVDKSRWQQGNVFSCSVMHEALHNHYTQKSLSLSPGK
- Killing EC50 (nM), T cell + NCI-H929, + 10 ng/mL sAPRIL [1]: 0.000538 nM
- Killing EC50 (nM), T cell + NCI-H929, + 10 ng/mL sBAFF [1]: 0.000447 nM
- Killing EC50 (nM), T cell + NCI-H929, + 100 ng/mL sAPRIL [1]: 0.000991 nM
- Killing EC50 (nM), T cell + NCI-H929, + 100 ng/mL sBAFF [1]: 0.000474 nM
- Killing EC50 (nM), T cell + NCI-H929, no soluble ligand [1]: 0.000439 nM
- Kd [2]: 0.0448 nM
- koff [2]: 1.89e-05 s⁻¹
- kon [2]: 422000 M⁻¹ s⁻¹
- Maximum MFI [3]: 11700 MFI
- IFN-γ release, EC50 [4]: 0.0194 nM
- IFN-γ release, Maximum [4]: 1950 pg/mL
- IL-2 release, EC50 [4]: 0.0375 nM
- IL-2 release, Maximum [4]: 222 pg/mL
- IL-6 release, EC50 [4]: 0.195 nM
- IL-6 release, Maximum [4]: 209 pg/mL
- IL-10 release, EC50 [4]: 0.0298 nM
- IL-10 release, Maximum [4]: 1050 pg/mL
- NCI-H929 killing, EC50 [4]: 0.00772 nM
- NCI-H929 killing, Maximum killing rate % [4]: 69.5%
- TNF-α release, EC50 [4]: 0.0445 nM
- TNF-α release, Maximum [4]: 1300 pg/mL
- Kd [5]: 0.141 nM
- koff [5]: 0.000116 s⁻¹
- kon [5]: 823000 M⁻¹ s⁻¹
- KD ratio (cy BCMA/hu BCMA) [6]: 3.16
- Maximum MFI [7]: 317000 MFI
- Killing EC50 (nM), T cell + NCI-H929, + 62.5 ng/mL sBCMA [8]: 0.00296 nM
- Killing EC50 (nM), T cell + NCI-H929, + 125 ng/mL sBCMA [8]: 0.00347 nM
- Killing EC50 (nM), T cell + NCI-H929, + 250 ng/mL sBCMA [8]: 0.005 nM
- Killing EC50 (nM), T cell + NCI-H929, + 500 ng/ml sBCMA [8]: 0.0088 nM
- Killing EC50 (nM), T cell + NCI-H929, no sBCMA [8]: 0.000393 nM

B2: PR003178 (bispecific antibody, human IgG1, lambda, L234A L235A)
light: QAVVTQEPSLTVSPGGTVTLTCRSSTGAVTTSNYANWVQQKPGQAPRGLIGGTNKRAPWTPARFSGSLLGDKAALTLLGAQPEDEAEYFCALWYSNLWVFGGGTKLTVLGQPKAAPSVTLFPPSSEELQANKATLVCLISDFYPGAVTVAWKADSSPVKAGVETTTPSKQSNNKYAASSYLSLTPEQWKSHRSYSCQVTHEGSTVEKTVAPTECS
heavy: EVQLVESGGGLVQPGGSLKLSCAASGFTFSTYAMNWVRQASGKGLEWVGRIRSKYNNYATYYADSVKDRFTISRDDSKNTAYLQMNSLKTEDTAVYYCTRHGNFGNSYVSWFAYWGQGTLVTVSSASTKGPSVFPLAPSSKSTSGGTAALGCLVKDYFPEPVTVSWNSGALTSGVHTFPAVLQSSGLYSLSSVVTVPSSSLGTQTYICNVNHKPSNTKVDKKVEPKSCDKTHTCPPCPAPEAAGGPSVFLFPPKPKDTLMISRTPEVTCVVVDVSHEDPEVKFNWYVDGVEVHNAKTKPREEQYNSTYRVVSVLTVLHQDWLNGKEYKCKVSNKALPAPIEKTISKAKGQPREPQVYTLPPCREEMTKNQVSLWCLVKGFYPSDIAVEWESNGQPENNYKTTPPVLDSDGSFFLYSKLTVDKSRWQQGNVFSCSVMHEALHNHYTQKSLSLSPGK
chain: EVQLVETGGGLIQPGGSLRLSCAASGFTVSDNYMTWVRQAPGKGLEWVSVIFSGGNTYYADSVKGRFTISRDNAKNTLYLQMNSLRAEDTALYYCARRNYDDTRGTDVFDIWGQGTMVTVSSGGGGSGGGGSGGGGSEVQLVETGGGLIQPGGSLRLSCAASGFTVSDNYMTWVRQAPGKGLEWVSVIFSGGNTYYADSVKGRFTISRDNAKNTLYLQMNSLRAEDTALYYCARRNYDDTRGTDVFDIWGQGTMVTVSSASEPKSSDKTHTCPPCPAPEAAGGPSVFLFPPKPKDTLMISRTPEVTCVVVDVSHEDPEVKFNWYVDGVEVHNAKTKPREEQYNSTYRVVSVLTVLHQDWLNGKEYKCKVSNKALPAPIEKTISKAKGQPREPQVCTLPPSREEMTKNQVSLSCAVKGFYPSDIAVEWESNGQPENNYKTTPPVLDSDGSFFLVSKLTVDKSRWQQGNVFSCSVMHEALHNHYTQKSLSLSPGK
- Killing EC50 (nM), PBMC + NCI-H929, + 10 ng/mL sBAFF [1]: 0.005 nM
- Killing EC50 (nM), PBMC + NCI-H929, + 10 ng/ml sAPRIL [1]: 0.009 nM
- Killing EC50 (nM), PBMC + NCI-H929, + 100 ng/mL sAPRIL [1]: 0.011 nM
- Killing EC50 (nM), PBMC + NCI-H929, + 100 ng/mL sBAFF [1]: 0.008 nM
- Killing EC50 (nM), PBMC + NCI-H929, no soluble ligand [1]: 0.007 nM
- Kd [2]: 0.236 nM
- koff [2]: 0.000117 s⁻¹
- kon [2]: 494000 M⁻¹ s⁻¹
- Maximum MFI [3]: 10700 MFI
- Kd [5]: 0.319 nM
- koff [5]: 0.000262 s⁻¹
- kon [5]: 822000 M⁻¹ s⁻¹
- IFN-γ release, EC50 [9]: 0.0595 nM
- IFN-γ release, Maximum [9]: 1210 pg/mL
- IL-2 release, EC50 [9]: 0.175 nM
- IL-2 release, Maximum [9]: 101 pg/mL
- IL-6 release, EC50 [9]: 0.0448 nM
- IL-6 release, Maximum [9]: 89.7 pg/mL
- IL-10 release, EC50 [9]: 0.104 nM
- IL-10 release, Maximum [9]: 322 pg/mL
- NCI-H929 killing, EC50 [9]: 0.0102 nM
- NCI-H929 killing, Maximum killing rate % [9]: 56.8%
- TNF-α release, EC50 [9]: 0.0281 nM
- TNF-α release, Maximum [9]: 1330 pg/mL
- KD ratio (cy BCMA/hu BCMA) [6]: 1.35
- Maximum MFI [7]: 23900 MFI
- Killing EC50 (nM), PBMC + NCI-H929, + 62.5 ng/ml sBCMA [8]: 0.009 nM
- Killing EC50 (nM), PBMC + NCI-H929, + 125 ng/mL sBCMA [8]: 0.014 nM
- Killing EC50 (nM), PBMC + NCI-H929, + 250 ng/ml sBCMA [8]: 0.065 nM
- Killing EC50 (nM), PBMC + NCI-H929, + 500 ng/ml sBCMA [8]: 0.12 nM
- Killing EC50 (nM), PBMC + NCI-H929, no sBCMA [8]: 0.005 nM
